Source: the supplement of paper PMC7877785
± gives the uncertainty stated by the source.

Assay: self-splicing fitness, log relative to wild type (ln ratio); higher = more splicing; Tetrahymena group I intron in knt gene, E. coli kanamycin selection, DiMSum; sequences stand for … in CUCUCU…GGAGGGAAAAGUUAUCAGGCAUGCACCUGGUAGCUAGUCUUUAAACCAAUAGAUUGCAUCGGUUUAAAAGGCAAGACCGUCAAAUUGCGGGAAAGGGGUCAACAGCCGUUCAGUACCAAGUCUCAGGGGAAACUUUGAGAUGGCCUUGCAAAGGGUAUGGUAAUAAGCUGACGGACAUGGUCCUAACCACGCAGCCAAGUCCUAAGUCAACAGAUCUUCUGUUGAUAUGGAUGCAGUUCACAGACUAAAUGUCGGUCGGGGAAGAUGUAUUCUUCUCAUAAGAUAUAGUCGGACCUCUCCUUAAUGGGAGCUAGCGGAUGAAGUGAUGCAACACUGGAGCCGCUGGGAACUAAUUUGUAUGCGAAAGUAUAUUGAUUAGUUUUGGAGUACUCGUGGUCG
Outline: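 A randomised library covering all eight P1ex-region intron nucleotides was built with the intron in the knt kanamycin-resistance gene on pET-22b(+) and held in E. coli BL21(DE3). Cells were grown overnight at 37°C or 30°C on LB agar, with or without 25 μg/mL kanamycin, plus 100 μg/mL carbenicillin, 50 μM IPTG and 0.2% rhamnose, and pooled colonies were amplicon-sequenced on an Illumina HiSeq 2500. DiMSum fitness is the error-weighted combination of wild-type-normalised replicate fold changes, kanamycin versus none.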

Sequence | self-splicing fitness (ln) (30 °C) | self-splicing fitness (ln) (37 °C)
UGGUAGCAAUAUUACGAAUU | -1.86 ± 0.36 | -2.22 ± 0.32
UGGUAGCAAUAUUACGACGG | -1.49 ± 0.11 | -0.695 ± 0.13
UGGUAGCAAUAUUACGAGAU |  | -1.76 ± 0.43
UGGUAGCAAUAUUACGAGGA | -2.9 ± 0.26 | -2.09 ± 0.32
UGGUAGCAAUAUUACGAGGC | -2.16 ± 0.28 | -2.19 ± 0.28
UGGUAGCAAUAUUACGAUGC | -3.09 ± 0.5 | -1.82 ± 0.43
UGGUAGCAAUAUUACGCGAA | -0.913 ± 0.11 | -0.833 ± 0.11
UGGUAGCAAUAUUACGCUCC | -2.54 ± 0.24 | -2.44 ± 0.21
UGGUAGCAAUAUUACGGACG | 1.33 ± 0.17 | 0.34 ± 0.19
UGGUAGCAAUAUUACGGACU | -0.67 ± 0.17 | 0.844 ± 0.2
UGGUAGCAAUAUUACGGAGG | -3.85 ± 0.27 | -1.56 ± 0.16
UGGUAGCAAUAUUACGGAUU | -3.77 ± 0.4 | -0.91 ± 0.31
UGGUAGCAAUAUUACGGCAU | -1.5 ± 0.2 | -0.405 ± 0.21
UGGUAGCAAUAUUACGGCGC | -1.57 ± 0.37 | -0.642 ± 0.3
UGGUAGCAAUAUUACGGGGG | -3.73 ± 0.32 | -2.45 ± 0.33
UGGUAGCAAUAUUACGGUCU | -0.135 ± 0.21 | -0.457 ± 0.33
UGGUAGCAAUAUUACGUAAU | -1.61 ± 0.19 | -0.903 ± 0.16
UGGUAGCAAUAUUACGUACA | -0.28 ± 0.087 | 0.35 ± 0.12
UGGUAGCAAUAUUACGUCGG | -1.21 ± 0.12 | -0.18 ± 0.15

Sequence | self-splicing fitness (ln) (30 °C) | self-splicing fitness (ln) (37 °C)
UGGUAGCAAUAUUACGUGGA | -2.71 ± 0.26 | -1.98 ± 0.16
UGGUAGCAAUAUUACGUUUG | -1.26 ± 0.07 | -0.669 ± 0.098
UGUAAGCAAUAUUACGAAUA | -0.825 ± 0.21 | -0.536 ± 0.23
UGUAAGCAAUAUUACGAAUG | -0.511 ± 0.077 | -0.125 ± 0.099
UGUAAGCAAUAUUACGACUU | -1.06 ± 0.09 | 0.0267 ± 0.14
UGUAAGCAAUAUUACGAGAC | -3.68 ± 0.43 | -0.552 ± 0.26
UGUAAGCAAUAUUACGAUCG | 0.587 ± 0.097 | -0.129 ± 0.11
UGUAAGCAAUAUUACGAUUU | -1.82 ± 0.17 | -1.24 ± 0.14
UGUAAGCAAUAUUACGCAAC | -3.15 ± 0.31 | -1.79 ± 0.29
UGUAAGCAAUAUUACGCACA | -1.44 ± 0.13 | -0.574 ± 0.17
UGUAAGCAAUAUUACGCGAG | -3.32 ± 0.27 | -1.56 ± 0.17
UGUAAGCAAUAUUACGCGUU | -2.69 ± 0.26 | -0.234 ± 0.2
UGUAAGCAAUAUUACGGACU | -0.351 ± 0.094 | 0.0199 ± 0.11
UGUAAGCAAUAUUACGGCAU | -1.48 ± 0.12 | -0.402 ± 0.11
UGUAAGCAAUAUUACGGCCG | -0.494 ± 0.17 | -0.516 ± 0.25
UGUAAGCAAUAUUACGGCCU | -1.08 ± 0.1 | -0.452 ± 0.12
UGUAAGCAAUAUUACGGCGU | -0.483 ± 0.1 | -0.397 ± 0.12
UGUAAGCAAUAUUACGGGAC | -2.45 ± 0.25 | -2.62 ± 0.44
UGUAAGCAAUAUUACGGUAA | -1.8 ± 0.2 | -0.586 ± 0.12
